Changes are numbered by the printed parent chain. Numbers in names are those of the source.
B1: thiostrepton resistance methyltransferase Tsr (wild type) (enzyme)
chain: MTELDTIANPSDPAVQRIIDVTKPSRSNIKTTLIEDVEPLMHSIAAGVEFIEVYGSDSSPFPSELLDLCGRQNIPVRLIDSSIVNQLFKGERKAKTFGIARVPRPARFGDIASRRGDVVVLDGVKIVGNIGAIVRTSLALGASGIILVDSDITSIADRRLQRASRGYVFSLPVVLSGREEAIAFIRDSGMQLMTLKADGDISVKELGDNPDRLALLFGSEKGGPSDLFEEASSASVSIPMMSQTESLNVSVSLGIALHERIDRNLAANR
B2: Tsr N129A mutant (enzyme, S. cyaneus, UniProt P18644 1-269, looked up)
chain: B1 chain with N129A

Biological target: the molecule itself
Assay: SEC

| Protein | stoichiometry N |
| --- | --- |
| B1 | 2 |
| B2 | 2 |

From publication PMC4661090 (FEBS letters, 2015)
